According to patent US20030109691A1 (GENERAL HOSPITAL, published 2003):

Target: T1, CD54 (ICAM-1) (UniProt P05362 28-480, limits assumed)
T1 construct: Amine-coupled to a CM5 chip for SPR
Assay: ELISA, CD11a A domain on ICAM-1

T1 sequence (P05362 28-480 limits assumed): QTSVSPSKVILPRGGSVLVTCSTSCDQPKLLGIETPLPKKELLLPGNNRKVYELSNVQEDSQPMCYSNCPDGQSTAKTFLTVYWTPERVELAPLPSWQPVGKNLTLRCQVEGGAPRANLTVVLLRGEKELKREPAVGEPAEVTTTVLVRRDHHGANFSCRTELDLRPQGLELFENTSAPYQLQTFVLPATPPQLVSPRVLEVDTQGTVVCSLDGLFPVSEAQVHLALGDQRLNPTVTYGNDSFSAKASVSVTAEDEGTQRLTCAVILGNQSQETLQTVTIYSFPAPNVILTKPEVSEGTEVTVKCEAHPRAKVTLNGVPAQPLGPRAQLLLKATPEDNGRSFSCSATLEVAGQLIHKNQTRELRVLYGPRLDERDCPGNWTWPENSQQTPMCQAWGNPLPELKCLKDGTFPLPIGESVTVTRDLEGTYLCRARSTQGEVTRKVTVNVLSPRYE

- binding result: no binding
B1: wild-type CD11a A domain (receptor, human, UniProt P20701 150-333, looked up)
chain: CIKGNVDLVFLFDGSMSLQPDEFQKILDFMKDVMKKLSNTSYQFAAVQFSTSYKTEFDFSDYVKRKDPDALLKHVKHMLLLTNTFGAINYVATEVFREELGARPDATKVLIIITDGEATDSGNIDAAKDIIRYIIGIGKHFQTKESQETLHKFASKPASEFVKILDTFEKLKDLFTELQKKIYV
notes: domain: A domain; also called wild-type protein without this substitution
